Data on 7 compounds can be found in article PMC4960888, “Gd-nanoparticles functionalization with specific peptides for ß-amyloid plaques targeting” (Journal of Nanobiotechnology, 2016).

The nature of series [1]: Relaxivity measurements (60 MHz, 37 °C). In kind it is physicochemical. The note with it: 60 MHz (1.4 T), Bruker minispec mq60, Gd^3+ concentration by ICP-OES. How it is done:
Relaxivity measurements were performed on a Bruker® minispec mq60NMR analyzer (Brucker, USA) at 37 °C at 1.4 T (60 MHz). Samples were measured at a specific Gd^3+ concentration (mM), calculated from ICP-OES. The longitudinal relaxation time T1 and the transverse relaxation time T2 (s) were measured at 60 MHz and at 37 °C. Then the relaxivities ri (s^−1 mM^−1) were obtained according to the following formula: 1/Timeasured=1/Tiwater+riGd^3+ where i = 1 or 2.

The nature of series [2]: Dynamic light scattering, hydrodynamic diameter. Format: physicochemical. The note with it: DLS, Zetasizer NanoS, 532 nm, 10 mM Gd^3+, 0.2 µm filtered; measurement repeated 8 times. As for the experimental part: Hydrodynamic diameters (DH) of the Nps were determined with a Zetasizer NanoS (laser He–Ne 532 nm) from Malvern Instrument® (5 mW, with 173° NIBS detector and narrow band filter). Attenuator was optimized by the device and position was set to the center of the cell. To perform the measurement, 1 mL of nanoparticles suspensions at 10 mM Gd^3+ was poured in a 12 mm square polystyrene disposable cuvette after filtration on a 0.2 µm cut-off nylon filter. Each measurement was repeated 8 times.

Series [3] deals with T1, Aβ(1–42) fibrils (Homo sapiens, UniProt P05067).
T1 construct: Freeze-dried Aβ(1–42) peptide (Genecust) was dissolved in distilled water at pH 11.0; purchased Genecust (Luxembourg)
The experiment in a line: Partition (spectrofluorometric) binding to Aβ(1–42) fibrils. The note with it: 20 µM fibrils, 2 µM nanoparticles, saturated with 3 mM AGuIX, 60 min; data not shown.

Series [4] concerns the target T1, Aβ(1–42) fibrils. The experiment in a line: SPR binding to Aβ(1–42) fibrils.
Description: The surface plasmon resonance assays were performed using a BIAcore® 2000 biosensor. The instrument was equipped with a CM3 sensor chip (GE Healthcare®, Uppsala, Sweden). The interaction studies took place on a gold chip functionalized with carboxymethylated dextran. The sensor surface itself form one wall of a flow cell, which is an integral part of the microfluidic system. All SPR experiments were performed at 25 °C. HEPES buffer (HBS-P, GE Healthcare®, 0.01 M HEPES, 0.15 M NaCl, 0.005 % surfactant p20) was used as running buffer.
For immobilization, amine coupling reagents were obtained from the GE Healthcare® kit containing 0.2 M EDC in water, 0.05 M NHS in water and ethanolamine-HCl pH 8.5. […] Aβ(1–42) and V30M-TTR fibrils were immobilized on the flow cell 2 and 4 respectively of a CM3 sensor chip with an amine coupling reaction. After the chip activation by EDC/NHS during 7 min, the fibrils were injected at: 10 µM in 10 mM sodium acetate pH 4 at a flow rate of 5 µL min^−1 during 20 min for Aβ(1–42) fibrils or at 0.36 µM in 10 mM sodium acetate pH 5.5 at a flow rate of 5 µL min^−1 during 100 min for V30M-TTR fibrils. […]
Biacore® experiments gathered data from 3 cycles for each studied analyte. […] Results of the interaction between the analytes and the Aβ(1–42) or V30M-TTR fibrils were represented on a sensorgram expressed as respectively FC2-1 or FC4-3 (RU-RUdextran) versus time. […]
In series [5] the test system is Aβ amyloid plaques (APPswe/PS1A246E/TTR(−/−) transgenic mouse brain sections). The experiment in a line: Immunohistochemistry on AD mouse brain sections with amyloid plaques. The note with it: 10 months old APPswe/PS1A246E/TTR(−/−) hippocampus, nanoparticles at 3 nM Cy5.5 (2 mM Gd^3+) with 3 mM ungrafted nanoparticles, or PIB 1 µM, 1h30 RT, fluorescence.
Series [6] relates to SH-SY5Y. The experiment in a line: MTT cell viability.
Description: The innocuousness of the grafted Nps was assessed using a neuronal cell line SH-SY5Y. The cell viability was assessed using the 3-(4,5-dimethylthiazol-2yl)-2,5-diphenyltetrazolium bromide (MTT) assay^63. SH-SY5Y cells were cultured in DMEM/F12 medium supplemented with 10 % fetal bovine serum and 1 % penicillin -streptomycin /amphotericin B. For the assay, the cells were plated at a density of 50 000 cells/well in 200 µl of medium. […] Nps were added to the cells and incubated at 37 °C, 5 % CO2. One hour later, 10 μL of MTT solutions (12 mM) was added into each well, and the plates were incubated for another 2 h at 37°C, 5% CO2. The culture medium was removed, and the precipitated cells were lysed using DMSO. After 10 minutes, the purple crystals were dissolved completely; the cell viability was calculated from the absorbance signals measured by a plate reader (Tecan Infinite M200) at 540 nm. The absorbance of the wells containing medium-only, corresponding to the background, were subtracted from the value of each reading. Data are expressed in % of cell viability, each MTT analysis was carried out on triplicate samples.
The test system of series [7] is V30M-TTR fibrils. The experiment in a line: SPR binding to V30M-TTR fibrils. Set-up: species or system human. The note with it: 800 R.U. V30M-TTR fibrils, 0.02–6.4 mM in peptide, R.U. 141 s after end of injection. The source says: N-(3-Dimethylaminopropyl)-N′-ethylcarbodiimide hydrochloride (EDC, >98.0 %), N-hydroxysuccinimide (NHS, >97.0 %), gadolinium chloride hexahydrate ([GdCl3·6H2O], 99 %), sodium hydroxide (NaOH, 99.99 %), hydrochloric acid (HCl, 36.5–38 %), sodium chloride (NaCl, >99.5 %), dimethyl sulfoxide (DMSO, >99.5 %), acetonitrile (CH3CN, >99.9 %), trifluoroacetic acid (TFA, >99 %), trinitrobenzene sulfonic acid (TNBS) 1 M in water, sodium dodecyl sulfate (SDS, >99 %), (3-aminopropyl)triethoxysilane (APTES, >98 %), tetraethyl orthosilicate (TEOS; >98 %) and Poly(ethylene glycol) bis(carboxymethyl) ether (PEG) with an average molecular weight Mn = 250 g mol^−1 were purchased from Aldrich Chemical (France) and used without further purification. Diethylene glycol (DEG, 99 %) was purchased from SDS Carlo Erba (France). Acetone (reagent grade) was purchased from Sodipro (France) and was used as received. […] Recombinant human V30M-TTR protein was obtained following cloning its gene in the plasmid pQE81L and its expression in Escherichia coli (M15). Briefly, bacterial cultures were performed in LB medium, 100 µg mL^−1 ampicillin and 25 µg mL^−1 kanamycin, at 37 °C, under constant orbital shaking. Protein production was pursued for 7 h after IPTG induction when the absorbance was 0.700 at 600 nm. The bacterial pellet of 50 mL of culture was resuspended in sodium phosphate 50 mM, pH 8, sodium chloride 300 mM, imidazole 10 mM, betamercaptoethanol 10 mM, supplemented with 500 µL of a protease inhibitor, phenylmethylsulfonyl fluoride (Sigma, #78830), at 1 mM final and a cocktail of protease inhibitor EDTA-free (Roche, #11873580001). The suspension was sonicated during a total time of 6 min with repeated cycles of 5/7 s off with an amplitude of 20 %, then centrifuged during 30 min at 100,000g, to pellet cellular debris. The supernatant was filtered on 0.2 µm cut off filters. The purification of the protein was performed on immobilized metal ion chromatography (Chelating Fast Flow, Amersham #17057501), and dialyzed against 20 mM·NH4HCO3 (membrane cutoff 1/10,000; 3500 MWCO Spectrapore). Finally, the protein was freeze-dried. The protein quality was checked by SDS PAGE gel 15 %. The Pittsburgh compound-B (PIB) derivative molecule was synthetized according to the procedure already described in the literature. Starting from the p-anisidine, the p-nitrobenzoyl amide was readily obtained and then the corresponding thioamide was prepared by reaction with Lawesson’s reagent. Finally, an oxidative cyclization was done to lead to the benzothiazole derivative, and the nitro function was reduced to give compound (Synthesis’ details in Additional file 1). […]
On the technique in general: Surface plasmon resonance follows binding to a sensor surface in real time, without labels.

Series [8] concerns amyloid fibrils. The note with it: cited from earlier work. The source says: Currently, magnetic resonance imaging (MRI) is the preferred neuroimaging examination for AD as it allows an accurate measurement of brain structures’ volume, although a decrease of this latter appears to be a nonspecific and late feature of cerebral vascular diseases’ progression. Thus, studies are under way to develop specific imaging markers for different types of dementia, including markers of senile plaques for very-high-field MRI and positron emission tomography (PET). A better characterization of the amyloid plaque presence and load in the brain can be also expected from i ...

In series [9] the test system is Aβ amyloid plaques (APPswe/PS1A246E/TTR(−/−) transgenic mouse brain sections). The note with it: cited from earlier work. As for the experimental part:
The specificity of functionalized nanoparticles binding was verified, by incubating nanoparticles without grafted-peptides, AGuIX@PEG@Cy5.5, on brain section containing amyloid burden. […] Whereas, various other cyanine derivative d ...

Series [10] deals with fibrils. The experiment in a line: Cy5.5 staining of fibrils in vitro (personal data). In kind it is binding. The note with it: in vitro on fibrils (personal data).

“Also recorded” adds a separate entry of the source.

T1 sequence (P05067 672-713): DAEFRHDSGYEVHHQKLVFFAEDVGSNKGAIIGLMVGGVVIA

With KLVFF [AGuIX@PEG@KLVFF], in [1], the “r1 (longitudinal relaxivity)” value was determined as 14.1 s⁻¹ mM⁻¹. The hydrodynamic diameter in [2] was 3.5 ± 0.9 nm.

Regarding `CNC[C@H](O)[C@@H](O)[C@H](O)[C@H](O)CO.O=C([O-])CN1CCN(CC(=O)[O-])CCN(CC(=O)O)CCN(CC(=O)[O-])CC1.[Gd+3]` [DOTAREM®, reference compound], in [1], the “r1 (longitudinal relaxivity)” value was found to be 3.4 s⁻¹ mM⁻¹.

As for “LPFFD [AGuIX@PEG@LPFFD@Cy5.5, AGuIX@PEG@LPFFD labeled with cyanine 5.5, 1 dye for 170 Np]”, in [3], the “Cy5.5 fluorescence associated with fibrils” value is recorded as “no fluorescence has been detected associated with fibrils”. Moreover, the “interaction (R.U. remaining 141 s after end of injection)” value in series [4] (2.5 mM in Gd^3+) is given as “interact with Aβ(1–42) fibrils”. In addition, the “interaction over nanoparticle concentration range” value in [4] (0.02–6.4 mM in peptide, R.U. 141 s after end of injection) is “displayed an interaction on Aβ(1–42) fibrils (blue curves) dependent on nanoparticle concentrations injected”. Further, the “binding/staining of amyloid plaques in AD mouse brain sections” value (shortened to “binding/staining of amyloid plaques”) in series [5] is “beta-amyloid plaques were visualized; also recorded: bind selectively amyloid plaque constituted by Aβ protein”; in series [5] (listed as LPFFD-grafted), “recognized and bound the Aβ amyloid plaque localized in the mouse hippocampus”. For the same compound, the cells alive result in [6] (5 mM Gd^3+, MTT) is reported as “more than 75%”; in [6] (1 h incubation, 0.5 to 2 mM Gd^3+, MTT), “more than 80%”. Moreover, the “toxic effects on cells” value in series [6] (MTT, up to 5 mM Gd^3+) was “do not exhibit any toxic effects on cells”. Further, the “interaction with V30M-TTR fibrils” value in [7] is “no specific interaction”; in series [7] (listed as LPFFD-grafted) it was “did not interact with V30M-TTR fibrils”.

As for “LPFFD [AGuIX@PEG@LPFFD, LPFFD grafted to AGuIX@PEG by amide formation, 1.6 ± 0.2 peptide per particle]”, the “r1 (longitudinal relaxivity)” value in [1] turned out to be 13.2 s⁻¹ mM⁻¹. Further, in series [6] (1 h at 37 °C, 5 % CO2, up to 2 mM nanoparticles, MTT 2 h, 540 nm, triplicate), the “cells alive (Fig. S7)” value was “more than 80%”. Moreover, the hydrodynamic diameter in [2] turned out to be 3.2 ± 0.8 nm.

For the compound `CNc1ccc(-c2nc3ccc(O)cc3s2)cc1` [Pittsburgh compound B, [^11C]2-(4′-methylaminophenyl)-6-hydroxybenzothiazole], in series [8], the “binding to amyloid fibrils” value is given as “binds with high affinity to any amyloid fibrils”.

As to Cy5.5 [reference compound], the “staining by Cy5.5 on brain section of AD mouse model” value in [9] was “does not stain fibrils”. In addition, the “binding/staining of amyloid plaques” value in series [5] is “non-binding of Cy5.5 dye to amyloid plaque; also recorded: background due to the Cy5.5 restricted to blood vessels”. Besides, the “staining of fibrils by Cy5.5 molecule” value in [10] is “does not stain fibrils”.

On to KLVFF [AGuIX@PEG@KLVFF@Cy5.5], for which the “binding/staining of amyloid plaques” value in series [5] is “beta-amyloid plaques were visualized; also recorded: bind selectively amyloid plaque constituted by Aβ protein”; in series [5] (listed as KLVFF-grafted), “recognized and bound the Aβ amyloid plaque localized in the mouse hippocampus”. In addition, the “interaction with V30M-TTR fibrils” value in [7] is on record as “no specific interaction”; in series [7] (listed as KLVFF-grafted), “did not interact with V30M-TTR fibrils”.
